This test addresses intact IFNAR1 from human cells (IFNAR1 chain of the type I interferon receptor) (human) (UniProt P17181). Put plainly: cell-based or functional assay.
Sequence of UniProt P17181 (P17181 28-557): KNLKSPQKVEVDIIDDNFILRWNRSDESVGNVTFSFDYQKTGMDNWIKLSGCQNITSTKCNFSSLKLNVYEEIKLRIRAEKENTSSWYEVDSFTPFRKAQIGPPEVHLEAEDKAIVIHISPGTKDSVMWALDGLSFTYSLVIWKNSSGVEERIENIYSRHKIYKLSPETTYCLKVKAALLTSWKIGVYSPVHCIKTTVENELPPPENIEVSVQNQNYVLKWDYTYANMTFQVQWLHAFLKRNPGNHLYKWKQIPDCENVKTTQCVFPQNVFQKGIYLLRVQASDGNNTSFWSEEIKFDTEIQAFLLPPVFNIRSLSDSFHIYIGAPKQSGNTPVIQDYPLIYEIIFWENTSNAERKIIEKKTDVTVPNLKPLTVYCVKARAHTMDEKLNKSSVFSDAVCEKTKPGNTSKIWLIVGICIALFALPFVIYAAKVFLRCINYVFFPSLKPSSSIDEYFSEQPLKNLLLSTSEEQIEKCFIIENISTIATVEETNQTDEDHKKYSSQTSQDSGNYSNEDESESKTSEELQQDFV

Take “IR1B4/PRMT enzyme (endogenous protein of human myeloma U266S cells) (from UniProt Q99873 11-371)”: the reduction in the growth inhibitory effect of IFN-β on myeloma U266S cells by antisense-1 oligonucleotide (Alamar Blue) is less than 5 fold.

Values taken from patent publication US20030176678A1.
